Key:
[1] = system: O=C(O)CC(C(=O)O)C(O)C(=O)O; test: purified protein; conditions: 0.05 M NaCl, 0.8 mM NADP+, 1 mM MgCl2, 32.5 mM Tris/HCl pH 7.5, concentration as DL-isocitrate, text b40 prints 0.010 mM, the table's Vmax/Km fits 0.019
[2] = system: O=C(O)CC(=O)C(=O)O; test: purified protein; conditions: 0.05 M NaCl, 0.3 mM NADH, 32.5 mM Tris/HCl pH 7.5

Row | Substance | Km [1] [µM] | Vmax [1] [µmol/min/mg] | Km [2] [µM] | Vmax [2] [µmol/min/mg]
1 | ICDHS.salinarum (Schmidingerothrix salinarum) | 19 | 6.8 |  | 
2 | MDHS.salinarum (Schmidingerothrix salinarum) |  |  | 38 | 2060

Reference: publication PMC5794333, “Identification of osmoadaptive strategies in the halophile, heterotrophic ciliate Schmidingerothrix salinarum” (PLoS Biology, 2018)
